Measurements: patent US20230265179A1 (TWIST BIOSCIENCE, published 2023)

B1: TSLP-12 (VHH)
VHH: EVQLVESGGGLVQPGGSLRLSCAASGFIFSSYWMGWFRQAPGKERELVSAIFSDGSTYYADSVKGRFTISADNSKNTAYLQMNSLKPEDTAVYYCAIDWYLNSWGQGTLVTVSS
notes: VHH-Fc (IgG2 Fc); not shown: IgG2 Fc of the VHH-Fc format
B2: TSLP-14 (VHH)
VHH: EVQLVESGGGLVQPGGSLRLSCAASGSIFSSYWMGWFRQAPGKERELVSAIFSDGSTYYADSVKGRFTISADNSKNTAYLQMNSLKPEDTAVYYCAKDYFGTGWGQGTLVTVSS
notes: as for B1
B3: TSLP-35 (VHH)
VHH: EVQLVESGGGLVQPGGSLRLSCAASGCIFSTYFMGWFRQAPGKERELVSAIFSDGSTYYADSVKGRFTISADNSKNTAYLQMNSLKPEDTAVYYCALDWNLNRWGQGTLVTVSS
notes: as for B1
B4: TSLP-22 (VHH)
VHH: EVQLVESGGGLVQPGGSLRLSCAASGRTFRSYVMGWFRQAPGKERELVSAIFSDGSTLYADSVKGRFTISADNSKNTAYLQMNSLKPEDTAVYYCAREDSSSGWFDYWGQGTLVTVSS
notes: as for B1
B5: TSLP-26 (VHH)
VHH: EVQLVESGGGLVQPGGSLRLSCAASGLTFSSYIMGWFRQAPGKERELVSAIFSDGSTLYADSVKGRFTISADNSKNTAYLQMNSLKPEDTAVYYCARDDYGGNFFDYWGQGTLVTVSS
notes: as for B1
B6: TSLP-23 (VHH)
VHH: EVQLVESGGGLVQPGGSLRLSCAASGRIFSTYFMGWFRQAPGKERELVSAIFSDGSTYYADSVKGRFTISADNSKNTAYLQMNSLKPEDTAVYYCALDLSTVRWGQGTLVTVSS
notes: as for B1
B7: TSLP-30 (VHH)
VHH: EVQLVESGGGLVQPGGSLRLSCAASGRTFSTYGMGWFRQAPGKEREFVAAMISWNGGSSTYYADSVKGRFTISADNSKNTAYLQMNSLKPEDTAVYYCTTDPAEFYDSSTYYPAPFDYWGQGTLVTVSS
notes: as for B1
B8: TSLP-32 (VHH)
VHH: EVQLVESGGGLVQPGGSLRLSCAASGNSFNNYVMGWFRQAPGKEREMVSAIFSDGSTYYADSVKGRFTISADNSKNTAYLQMNSLKPEDTAVYYCVRDSGSVSGQTFDSWGQGTLVTVSS
notes: as for B1
B9: TSLP-4 (VHH)
VHH: EVQLVESGGGLVQPGGSLRLSCAASGFTFSSYWMGWFRQAPGKERELVSAIFSDGSTMYADSVKGRFTISADNSKNTAYLQMNSLKPEDTAVYYCTRDSTDTRYWGQGTLVTVSS
notes: as for B1
B10: TSLP-36 (VHH)
VHH: EVQLVESGGGLVQPGGSLRLSCAASGGTLDDYVMGWFRQAPGKEREFVGFIGSDGSTLYADSVKGRFTISADNSKNTAYLQMNSLKPEDTAVYYCTTEWDGYWGQGTLVTVSS
notes: as for B1

Tests used:
[1] = biological target: T1, TSLP (UniProt Q969D9 29-159); assay: SPR, Carterra LSA, antibody amine-coupled, 1:1 model
T1 construct: Soluble analyte of the SPR assay
Description: SPR experiments were performed on a Carterra LSA SPR biosensor equipped with a HC30M chip at 25° C. in HBS-TE. Antibodies were diluted to 10 μg/mL and amine-coupled to the sensor chip by EDC/NHS activation, followed by ethanolamine HCl quenching. Increasing concentrations of analyte were flowed over the sensor chip in HBS-TE with 0.5 mg/mL BSA with 5-minute association and 15-minute dissociation. Following each injection cycle the surface was regenerated with 2× 30-second injections of IgG elution buffer (Thermo). Data were analyzed in Carterra's Kinetics Tool software with 1:1 binding model.

[2] = biological target: T2, TSLP on over-expressing Expi293 cells (UniProt Q969D9 29-159, limits assumed); assay: flow cytometry titration on TSLP over-expressing Expi293 cells
T2 construct: whole, on cells; Target of the flow cytometry assay; also called cytokine over-expressing Expi293 cells
Description: (§1) All incubations and washes were in buffer containing PBS+1% BSA. MFI Ratio is defined by the mean fluorescence intensity (MFI) of the cytokine over-expressing Expi293 cell over the Expi293 parent cell. […] EC50 was calculated in GraphPad Prism.

[3] = biological target: T2, TSLP on over-expressing Expi293 cells; assay: flow cytometry, 100 nM, TSLP over-expressing Expi293 over parent cells
Description: as §1

Binder | Kd [1] [nM] | koff [1] [s⁻¹] | kon [1] [M⁻¹ s⁻¹] | EC50 [2] [nM] | 100 nM (MFI Ratio) [3] [MFI ratio]
B1 | 13.9 | 0.00137 | 98700 | 0.5 | 76.2
B2 | 31.4 | 0.0016 | 51000 | 0.18 | 20.3
B3 | 20 | 0.00145 | 72600 | 0.28 | 108
B4 | 12.1 | 0.00106 | 88200 | 0.66 | 90.4
B5 | 5.09 | 0.000228 | 44700 | 3.37 | 313
B6 | 19.1 | 0.00131 | 68500 | 0.12 | 226
B7 | 63.2 | 0.000996 | 15800 | 0.43 | 105
B8 | 7.24 | 0.00121 | 167000 | 0.45 | 195
B9 | 7.14 | 0.000542 | 75900 | 0.18 | 157
B10 | 3.39 | 0.000487 | 144000 | 0.11 | 100
